Test results taken from paper PMC3858276.

Experiments:
[1] = molecular target: phosphorylated SNAP-ADAP fusion protein (ADAP amino acids 570-690) (human) (UniProt O15117); experiment: MST; SH2 proteins (only partly purified) serially diluted in 1x PBS with 1.75% (v/v) E. coli extract; fluorescent ADAP at 12 nM; 5 min at RT; Monolith NT.115
[2] = molecular target: site-specifically biotinylated Fyn SH2 domain (UniProt P06241); experiment: supernatant depletion assay (pull-down titration); biotinylated SH2 domains on streptavidin-coated DynaBeads, washed once and serially diluted in 1x PBS; ADAP at 8 nM (PBS with 0.1% E. coli extract), 10 min at RT; unbound ADAP in the supernatant read by in-gel fluorescence; Kd estimated from the plot
site-specifically biotinylated Fyn SH2 domain, sequence (P06241 149-246): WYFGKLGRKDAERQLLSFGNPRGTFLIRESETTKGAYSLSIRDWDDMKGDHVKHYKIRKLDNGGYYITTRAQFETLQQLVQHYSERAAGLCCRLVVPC

phosphorylated SNAP-ADAP fusion protein (ADAP amino acids 570-690) (human), sequence (O15117 570-690): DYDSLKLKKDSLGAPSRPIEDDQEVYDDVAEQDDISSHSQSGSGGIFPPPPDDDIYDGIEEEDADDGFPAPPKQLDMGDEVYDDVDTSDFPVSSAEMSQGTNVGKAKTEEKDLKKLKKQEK

Kd [1]	Kd [2]	Substance
1 µM	–	Fyn SH2 domain without biotin (for MST) (from UniProt P06241 149-246) (domain or fragment)
1 µM	–	Src SH2 domain without biotin (for MST) (from UniProt P12931 151-248) (domain or fragment)
–	0.3 µM	phosphorylated SNAP-ADAP fusion protein (ADAP amino acids 570-690) (from UniProt O15117 570-690) (domain or fragment)
